In patent US20240400720A1 (NOVIMMUNE S A, published 2024):
Numbering of substitutions follows the chain as printed.

B1: Ka3D3 antibody (antibody, human IgG1, kappa, V domains shown)
VH: not shown
VL: DIQMTQSPSSLSASVGDRVTITCRASQSIGKYLNWYQQKPGKAPKLLIYAASRLQSGVPSRFSGSGSGTDFTLTISSLQPEDFATYYCQQMHPRAPKTFGQGTKVEIKR
notes: IgG
B2: 5A3M4 (antibody, human IgG1, kappa, V domains shown)
VH: not shown
VL: DIQMTQSPSSLSASVGDRVTITCQASQDINKYLNWYQQKPGKAPKLLIYGASRLETGVPSRFSGSGSGTDFTFTISSLQPEDIATYYCQQKHPRNPRTFGQGTKVEIKR
notes: the list MOLECULES holds only the monovalent form; also called 5A3-M4 antibody
B3: Ka3H8 antibody (antibody, human IgG1, kappa, V domains shown)
VH: not shown
VL: B1 VL with G30A, K31S, A95S
notes: IgG
B4: Ka3B2 antibody (antibody, human IgG1, kappa, V domains shown)
VH: not shown
VL: B1 VL with S28N, A50S
notes: IgG
B5: Ke8H3 antibody (antibody, human IgG1, kappa, V domains shown)
VH: not shown
VL: B1 VL with G30N, K31R, M91K, A95G, K97R
notes: IgG
B6: Ke8G2 antibody (antibody, human IgG1, kappa, V domains shown)
VH: not shown
VL: B1 VL with K31R, S76N, M91K, K97R
notes: IgG
B7: Ke8C4 antibody (antibody, human IgG1, kappa, V domains shown)
VH: not shown
VL: B1 VL with G30S, K31R, R53N, A95G
notes: IgG
B8: Ke8G6 antibody (antibody, human IgG1, kappa, V domains shown)
VH: not shown
VL: B1 VL with K31R, R53S
notes: IgG
B9: Ke8B7 antibody (antibody, human IgG1, kappa, V domains shown)
VH: not shown
VL: B1 VL with R53S, A95S
notes: IgG
B10: Ke8B2 antibody (antibody, human IgG1, kappa, V domains shown)
VH: not shown
VL: B1 VL with M91K, K97R
notes: IgG; also called KE8-P3B2
B11: Ka3G2 antibody (antibody, human IgG1, kappa, V domains shown)
VH: not shown
VL: B1 VL with G30D, A95G
notes: IgG; also called KA3-P5G2
B12: Ke8H5 antibody (antibody, human IgG1, kappa, V domains shown)
VH: not shown
VL: B1 VL with G30A, K31R, R53S, M91F, P93K, K97Q
notes: IgG; also called KE8-P6H5
B13: Ka3A2 antibody (antibody, human IgG1, kappa, V domains shown)
VH: not shown
VL: B1 VL with G30S, A95S
notes: IgG
B14: Ka3C5 antibody (antibody, human IgG1, kappa, V domains shown)
VH: not shown
VL: B1 VL with G30S, K31R, A50S, R53S
notes: IgG; also called KA3-P5C5
B15: Ke8A8 antibody (antibody, human IgG1, kappa, V domains shown)
VH: not shown
VL: B1 VL with G30S, R53T
notes: IgG
B16: Ke84G9 antibody (antibody, human IgG1, kappa, V domains shown)
VH: not shown
VL: B1 VL with G30S, R53S, M91K, A95S, K97R
notes: IgG
B17: Ke8C7 antibody (antibody, human IgG1, kappa, V domains shown)
VH: not shown
VL: B1 VL with R24Q, S28D, G30N, K31R, R53S, M91R, A95G, K97R
notes: IgG
B18: Ke81A3 antibody (antibody, human IgG1, kappa, V domains shown)
VH: not shown
VL: B1 VL with R24Q, S28D, G30N, K31R, R53S, M91R, K97R
notes: IgG
B19: Ka3H3 antibody (antibody, human IgG1, kappa, V domains shown)
VH: not shown
VL: B1 VL with R24Q, S28D, G30A, R53A, A95S
notes: IgG
B20: Ka3A3 antibody (antibody, human IgG1, kappa, V domains shown)
VH: not shown
VL: B1 VL with G30A, K31S
notes: IgG; also called KA3-P1A3
B21: Ke8E8 antibody (antibody, human IgG1, kappa, V domains shown)
VH: not shown
VL: B2 VL with G50A, R53S, E55Q, T56S, F73L, I83F, N95G
notes: IgG
B22: Ke8H6 antibody (antibody, human IgG1, kappa, V domains shown)
VH: not shown
VL: B1 VL with G30S, A50N, R53T, M91R, A95G, K97R
notes: IgG
B23: Ke8F1 antibody (antibody, human IgG1, kappa, V domains shown)
VH: not shown
VL: B1 VL with G30A, K31S, L33V, R53G, M91F, P93K, A95R, K97Q
notes: IgG
B24: Ke81G9 antibody (antibody, human IgG1, kappa, V domains shown)
VH: not shown
VL: B1 VL with G30D, M91R, P93K, A95S, K97Q
notes: IgG
B25: Ke8A4 antibody (antibody, human IgG1, kappa, V domains shown)
VH: not shown
VL: B1 VL with G30A, R53S, M91F, P93K, A95S, K97Q
notes: IgG
B26: Ke86G9 antibody (antibody, human IgG1, kappa, V domains shown)
VH: not shown
VL: B1 VL with G30S, A50N, R53N, M91R, A95G, K97T
notes: IgG
B27: Ke8G11 antibody (antibody, human IgG1, kappa, V domains shown)
VH: not shown
VL: B1 VL with K31R, R53S, A95G
notes: IgG
B28: Kc4C3 antibody (antibody, human IgG1, lambda, V domains shown)
VH: not shown
VL: QSALTQPASVSGSPGQSITISCTGTSSDVRAANYVSWYQQHPGKAPKLMIYKNSTRPSGVSNRFSGSKSGNTASLTISGLQAEDEADYYCSSYDWWFRPKVFGGGTKLTVLG
notes: IgG, lambda
B29: Kc4A4 antibody (antibody, human IgG1, lambda, V domains shown)
VH: not shown
VL: B28 VL with G24R, R30N, A31N, A32T, N53T, T55G
notes: IgG, lambda
B30: Kc4A1 antibody (antibody, human IgG1, lambda, V domains shown)
VH: not shown
VL: B28 VL with R30S, A32R, K52E, N53S, T55K
notes: IgG, lambda
B31: Ke8F2 antibody (antibody, human IgG1, kappa, V domains shown)
VH: not shown
VL: B1 VL with G30D, R53S, M91K, K97R
notes: IgG

Target: T1, human CD47 on the cell surface (human, UniProt Q08722 19-323)
T1 construct: whole, on cells; also called huCD47; native CD47
Test: CD47-SIRPα competitive binding assay: His-tagged soluble human SIRPα (200 ng/ml) on hCD47-transfected CHO cells, antibody 3.3 pM-330 nM; blocked ligand SIRPα

Binding result, binds:
B1, B2, B3, B4, B5, B6, B7, B8, B9, B10, B11, B12, B13, B14, B15, B16, B17, B18, B19, B20, B21, B22, B23, B24, B25, B26, B27, B28, B29, B30

Target: T2, human CD47 (human, UniProt Q08722 19-141, limits assumed)
T2 construct: also called hCD47
Test: affinity maturation by phage display on hCD47; positive in hCD47-SIRPα inhibition screen, reformatted as IgG

Binding result, binds:
B1, B31, B3, B4, B5, B6, B7, B8, B9, B10, B11, B12, B13, B14, B15, B16, B17, B18, B19, B20, B21, B22, B23, B24, B25, B26, B27, B28, B29, B30
